Assay [1] concerns the target human CCR8 (human) (UniProt P51685). The assay can be described thus: binding affinity EC50, comparison of Table 12 (FACS on CCR8-expressing cells).
The target is the same in assay [2]. The assay can be described thus: cell-based or functional assay.

The term EC50 denotes the concentration that produces a half-maximal response.

Sequence of human CCR8 (human) (P51685 whole entry): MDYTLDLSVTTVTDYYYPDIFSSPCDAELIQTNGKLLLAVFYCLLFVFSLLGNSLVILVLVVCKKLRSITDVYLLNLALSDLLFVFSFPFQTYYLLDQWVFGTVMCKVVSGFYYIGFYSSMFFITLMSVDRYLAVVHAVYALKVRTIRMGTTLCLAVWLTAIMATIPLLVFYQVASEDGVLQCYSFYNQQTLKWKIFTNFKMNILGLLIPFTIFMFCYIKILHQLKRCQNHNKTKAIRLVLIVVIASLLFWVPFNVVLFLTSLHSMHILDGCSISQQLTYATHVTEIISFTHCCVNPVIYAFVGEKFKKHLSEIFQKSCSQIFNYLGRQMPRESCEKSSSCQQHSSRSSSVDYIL

B1: SRF-114 (antibody, from another filing, V domains shown)
VH: QVQLVQSGAEVKKPGASVKVSCKASGYTFTSYYMHWVRQAPGQGLEWMGIINPSGGSTSYAQKFQGRVTMTRDTSTSTVYMELSSLRSEDTAVYYCARAVRNRFRFDYWGQGTLVTVSS
VL: QSALTQPASVSGSPGQSITISCTGTSSDVGSYNLVSWYQQHPGKAPKLMIYEVSKRPSGVSNRFSGSKSGNTASLTISGLQAEDEADYYCSSYAGSSTFVVFGGGTKLTVL
In the case of B1, the EC50 in assay [1] came to 3.2 nM. The molecule further registered a Signal block Ca2+ in assay [2] of 179 nM.

The values are drawn from patent publication US20240352134A1.
